For three substances, Kd, koff and kon results are on record in PMC6373967.

Like-named read-outs stand apart in the source and are kept apart here.

The target of assay [1] is nectin-1(346t) (human) (UniProt Q15223). As to the kind of experiment: SPR; BIAcore 3000, 25°C, HBS-EP pH 7.4; about 2000 RU of nectin-1(346t) or nectin-1(143t) amine-coupled to a CM5 chip; hCD96t flowed at 50 ul/min, 2 min association and 2 min dissociation; 1:1 Langmuir model with drifting baseline, global fit. (In general: SPR reads the build-up and loss of mass on a sensor chip optically.)

In the next assay the target is nectin-1(143t) (human). The assay is described as above.
Assay [2] has as its target nectin-1(346t) (human) (UniProt Q15223). The description is as above. This is another data set of the same source.
A further assay concerns the target nectin-1 (Homo sapiens) (UniProt Q15223). Conditions: cited from earlier work.
The next assay deals with CD155 (Homo sapiens) (UniProt P15151). Conditions: cited from earlier work.
UniProt P15151, sequence (P15151 21-343): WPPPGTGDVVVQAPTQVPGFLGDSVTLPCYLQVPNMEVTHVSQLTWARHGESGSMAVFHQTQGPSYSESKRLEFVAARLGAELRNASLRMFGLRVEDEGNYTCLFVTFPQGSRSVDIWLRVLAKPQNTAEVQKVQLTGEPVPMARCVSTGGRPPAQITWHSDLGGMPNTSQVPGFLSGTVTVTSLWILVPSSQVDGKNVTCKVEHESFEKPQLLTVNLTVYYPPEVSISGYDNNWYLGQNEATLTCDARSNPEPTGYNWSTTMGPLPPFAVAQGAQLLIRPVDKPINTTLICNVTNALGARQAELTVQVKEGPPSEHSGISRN

nectin-1, sequence (Q15223 31-355): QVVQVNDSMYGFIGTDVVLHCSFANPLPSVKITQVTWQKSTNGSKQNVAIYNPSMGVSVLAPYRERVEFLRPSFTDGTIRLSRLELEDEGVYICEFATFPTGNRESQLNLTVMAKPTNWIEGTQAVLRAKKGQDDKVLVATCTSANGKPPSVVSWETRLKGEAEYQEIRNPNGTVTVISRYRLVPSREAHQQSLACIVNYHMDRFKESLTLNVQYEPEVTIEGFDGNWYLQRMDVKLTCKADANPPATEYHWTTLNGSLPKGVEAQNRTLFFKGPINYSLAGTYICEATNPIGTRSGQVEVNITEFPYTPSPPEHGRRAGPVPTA

As for hCD96(516t) (domain or fragment), in the assay with nectin-1(346t) (human) [1], the dissociation constant (Kd) (commonly the constant that tells how readily two partners part at equilibrium) came to 2.43 µM; the off-rate (koff) (as a rule, the first-order rate constant of dissociation) is 0.0094 s⁻¹; the on-rate constant (kon) (commonly a measure of how fast the partners come together) was 3900 M⁻¹ s⁻¹. In the assay with nectin-1(143t) (human), the equilibrium dissociation constant (Kd) is 3.22 µM, the dissociation rate constant (koff) turned out to be 0.012 s⁻¹ and the on-rate (kon) is 3200 M⁻¹ s⁻¹. Besides, in the assay with nectin-1(346t) (human) [2], the Kd was found to be 2.34 µM.
Take nectin-1 (from UniProt Q15223): in the assay with nectin-1 (Homo sapiens), the Kd is 17.5 µM.
With CD96 (from UniProt P40200), in the assay with CD155 (Homo sapiens), the equilibrium dissociation constant (Kd) was 0.0376 µM.
